Our source for the FRET IκBα diubiquitination in test tube, time course to 10 min: IκBα–Ub2 product by gel, FRET signal rising alike (Fig. 2A), real-time FRET IκBα diubiquitination, 30 °C, 30 min; conversion of substrate by gel analysis (Fig. 3A, B) and real-time FRET IκBα diubiquitination under single-round turnover condition (preformed complexes treated with apyrase) (Fig. 4) values is publication PMC7948536.

In assay [1] the target is E3 SCF^βTrCP (neddylated; Skp1–βTrCP with Nedd8–ROC1–CUL1) (UniProt P63208).
Assay [2] has the same target. The source holds these as a separate data set.
Assay [3] has the same target. The source holds these as a separate data set.

“IκBα (EE)–Ub (E64C)–I647 (from UniProt P25963 1-20; P0CG48 1-74; P25963 23-54)” had an FRET IκBα diubiquitination in test tube, time course to 10 min: IκBα–Ub2 product by gel, FRET signal rising alike (Fig. 2A) in assay [1] of over 30%. The real-time FRET IκBα diubiquitination, 30 °C, 30 min; conversion of substrate by gel analysis (Fig. 3A, B) in assay [2] came to 85%. In addition, the real-time FRET IκBα diubiquitination under single-round turnover condition (preformed complexes treated with apyrase) (Fig. 4) in assay [3] is 20%.
